Measured values as given in the supplement of paper PMC11246515.
± gives the standard deviation of the averaged measurements.

Experiment: total protein half-life in vivo (active degradation + dilution); higher = more stable protein
[1] = E. coli NCM3722 delta-clpP delta-lon delta-hslV, growth: N-lim chemostat, doubling time 6 h
[2] = E. coli NCM3722 delta-clpP, growth: N-lim chemostat, doubling time 6 h
[3] = E. coli NCM3722 delta-hslV, growth: N-lim chemostat, doubling time 6 h
[4] = E. coli NCM3722 delta-lon, growth: N-lim chemostat, doubling time 6 h
[5] = E. coli NCM3722 delta-smpB, growth: N-lim chemostat, doubling time 6 h
[6] = wild type E. coli NCM3722, growth: C-lim chemostat, doubling time 3 h
[7] = wild type E. coli NCM3722, growth: C-lim chemostat, doubling time 6 h
[8] = wild type E. coli NCM3722, growth: C-lim chemostat, doubling time 12 h
[9] = wild type E. coli NCM3722, growth: N-lim chemostat, doubling time 6 h
[10] = wild type E. coli NCM3722, growth: N-lim chemostat, doubling time 12 h
[11] = wild type E. coli NCM3722, growth: P-lim chemostat, doubling time 6 h
[12] = wild type E. coli NCM3722, growth: P-lim chemostat, doubling time 12 h

Sequence | total protein half-life in vivo [1] [h] | total protein half-life in vivo [2] [h] | total protein half-life in vivo [3] [h] | total protein half-life in vivo [4] [h] | total protein half-life in vivo [5] [h] | total protein half-life in vivo [6] [h] | total protein half-life in vivo [7] [h] | total protein half-life in vivo [8] [h] | total protein half-life in vivo [9] [h] | total protein half-life in vivo [10] [h] | total protein half-life in vivo [11] [h] | total protein half-life in vivo [12] [h]
MSQEYIEDKEVTLTKLSSGRRLLEALLILIVLFAVWLMAALLSFNPSDPSWSQTAWHEPIHNLGGMPGAWLADTLFFIFGVMAYTIPVIIVGGCWFAWRHQSSDEYIDYFAVSLRIIGVLALILTSCGLAAINADDIWYFASGGVIGSLLSTTLQPLLHSSGGTIALLCVWAAGLTLFTGWSWVTIAEKLGGWILNILTFASNRTRRDDTWVDEDEYEDDEEYEDENHGKQHESRRARILRGALARRKRLAEKFINPMGRQTDAALFSGKRMDDDEEITYTARGVAADPDDVLFSGNRATQPEYDEYDPLLNGAPITEPVAVAAAATTATQSWAAPVEPVTQTPPVASVDVPPAQPTVAWQPVPGPQTGEPVIAPAPEGYPQQSQYAQPAVQYNEPLQQPVQPQQPYYAPAAEQPAQQPYYAPAPEQPVAGNAWQAEEQQSTFAPQSTYQTEQTYQQPAAQEPLYQQPQPVEQQPVVEPEPVVEETKPARPPLYYFEEVEEKRAREREQLAAWYQPIPEPVKEPEPIKSSLKAPSVAAVPPVEAAAAVSPLASGVKKATLATGAAATVAAPVFSLANSGGPRPQVKEGIGPQLPRPKRIRVPTRRELASYGIKLPSQRAAEEKAREAQRNQYDSGDQYNDDEIDAMQQDELARQFAQTQQQRYGEQYQHDVPVNAEDADAAAEAELARQFAQTQQQRYSGEQPAGANPFSLDDFEFSPMKALLDDGPHEPLFTPIVEPVQQPQQPVAPQQQYQQPQQPVPPQPQYQQPQQPVAPQPQYQQPQQPVAPQQQYQQPQQPVAPQQQYQQPQQPVAPQPQDTLLHPLLMRNGDSRPLHKPTTPLPSLDLLTPPPSEVEPVDTFALEQMARLVEARLADFRIKADVVNYSPGPVITRFELNLAPGVKAARISNLSRDLARSLSTVAVRVVEVIPGKPYVGLELPNKKRQTVYLREVLDNAKFRDNPSPLTVVLGKDIAGEPVVADLAKMPHLLVAGTTGSGKSVGVNAMILSMLYKAQPEDVRFIMIDPKMLELSVYEGIPHLLTEVVTDMKDAANALRWCVNEMERRYKLMSALGVRNLAGYNEKIAEADRMMRPIPDPYWKPGDSMDAQHPVLKKEPYIVVLVDEFADLMMTVGKKVEELIARLAQKARAAGIHLVLATQRPSVDVITGLIKANIPTRIAFTVSSKIDSRTILDQAGAESLLGMGDMLYSGPNSTLPVRVHGAFVRDQEVHAVVQDWKARGRPQYVDGITSDSESEGGAGGFDGAEELDPLFDQAVQFVTEKRKASISGVQRQFRIGYNRAARIIEQMEAQGIVSEQGHNGNREVLAPPPFD | 3.531 ± 0.015 | 2.17 ± 0.29 | 1.2 ± 0.38 | 1.48 ± 0.059 | 0.895 ± 0.031 | 0.891 ± 0.042 | 1.36 ± 0.11 | 1.76 ± 0.29 | 1.39 ± 0.31 | 1.57 ± 0.13 | 1.48 ± 0.15 | 2.78 ± 1
MSQFFYIHPDNPQQRLINQAVEIVRKGGVIVYPTDSGYALGCKIEDKNAMERICRIRQLPDGHNFTLMCRDLSELSTYSFVDNVAFRLMKNNTPGNYTFILKGTKEVPRRLLQEKRKTIGMRVPSNPIAQALLEALGEPMLSTSLMLPGSEFTESDPEEIKDRLEKQVDLIIHGGYLGQKPTTVIDLTDDTPVVVREGVGDVKPFL [P0AFR4] | 5.38 ± 0.1 |  | 6.202 ± 0.062 | 6.96 ± 1.2 | 6.51 ± 0.8 | 3.1 ± 0.11 | 6.18 ± 1.4 | 12.2 ± 1.1 | 5.38 ± 0.017 | 14.4 ± 1.2 | 4.64 ± 0.17 | 12.9 ± 1.6
MSQLPGLSRETRESIAMYHLRVPQTEEELERYYQFRWEMLRKPLHQPKGSERDAWDAMAHHQMVVDEQGNLVAVGRLYINADNEASIRFMAVHPDVQDKGLGTLMAMTLESVARQEGVKRVTCSAREDAVEFFAKLGFVNQGEITTPTTTPIRHFLMIKPVATLDDILHRGDWCAQLQQAWYEHIPLSEKMGVRIQQYTGQKFITTMPETGNQNPHHTLFAGSLFSLATLTGWGLIWLMLRERHLGGTIILADAHIRYSKPISGKPHAVADLGALSGDLDRLARGRKARVQMQVEIFGDETPGAVFEGTYIVLPAKPFGPYEEGGNEEE [P0ADQ2] | 5.56 ± 0.43 | 4.46 ± 0.32 | 5.1 ± 0.92 | 4.93 ± 0.26 | 4.38 ± 0.27 | 2.8559 ± 0.0026 | 5.57 ± 0.27 | 9.83 ± 0.3 | 4.71 ± 0.12 | 8.84 ± 1.4 | 5.88 ± 0.23 | 11.8 ± 0.52
MSQLVYFSSSSENTQRFIERLGLPAVRIPLNERERIQVDEPYILIVPSYGGGGTAGAVPRQVIRFLNDEHNRALLRGVIASGNRNFGEAYGRAGDVIARKCGVPWLYRFELMGTQSDIENVRKGVTEFWQRQPQNA [P0A772] | 4.46 ± 0.33 |  |  |  |  |  |  |  |  |  |  | 
MSQPITRENFDEWMIPVYAPAPFIPVRGEGSRLWDQQGKEYIDFAGGIAVNALGHAHPELREALNEQASKFWHTGNGYTNEPVLRLAKKLIDATFADRVFFCNSGAEANEAALKLARKFAHDRYGSHKSGIVAFKNAFHGRTLFTVSAGGQPAYSQDFAPLPADIRHAAYNDINSASALIDDSTCAVIVEPIQGEGGVVPASNAFLQGLRELCNRHNALLIFDEVQTGVGRTGELYAYMHYGVTPDLLTTAKALGGGFPVGALLATEECARVMTVGTHGTTYGGNPLASAVAGKVLELINTPEMLNGVKQRHDWFVERLNTINHRYGLFSEVRGLGLLIGCVLNADYAGQAKQISQEAAKAGVMVLIAGGNVVRFAPALNVSEEEVTTGLDRFAAACEHFVSRGSS | 3.59 ± 0.43 | 3.17 ± 0.87 | 2.47 ± 0.25 | 2.97 ± 0.5 | 2.79 ± 0.15 | 3.106 ± 0.012 | 4.44 ± 0.17 | 7.4513 ± 0.0042 | 2.67 ± 0.12 | 3.532 ± 0.018 | 5.09 ± 0.52 | 9.766 ± 0.073
MSQQVIIFDTTLRDGEQALQASLSVKEKLQIALALERMGVDVMEVGFPVSSPGDFESVQTIARQVKNSRVCALARCVEKDIDVAAESLKVAEAFRIHTFIATSPMHIATKLRSTLDEVIERAIYMVKRARNYTDDVEFSCEDAGRTPIADLARVVEAAINAGATTINIPDTVGYTMPFEFAGIISGLYERVPNIDKAIISVHTHDDLGLAVGNSLAAVHAGARQVEGAMNGIGERAGNCSLEEVIMAIKVRKDILNVHTAINHQEIWRTSQLVSQICNMPIPANKAIVGSGAFAHSSGIHQDGVLKNRENYEIMTPESIGLNQIQLNLTSRSGRAAVKHRMDEMGYKESEYNLDNLYDAFLKLADKKGQVFDYDLEALAFIGKQQEEPEHFRLDYFSVQSGSNDIATAAVKLACGEEVKAEAANGNGPVDAVYQAINRITEYNVELVKYSLTAKGHGKDALGQVDIVANYNGRRFHGVGLATDIVESSAKAMVHVLNNIWRAAEVEKELQRKAQHNENNKETV | 4.72 ± 0.57 | 4.48 ± 0.55 | 1.61 ± 0.08 | 1.77 ± 0.1 | 1.492 ± 0.0018 | 2.21 ± 0.067 | 3.71 ± 0.24 | 4.45 ± 0.23 | 1.63 ± 0.16 | 1.92 ± 0.043 | 3.83 ± 0.44 | 6.6 ± 0.52
